# Experimental data as given in EP3815699A1, “NEW MEANS AND METHODS FOR THERAPY AND DIAGNOSIS OF […]” (Technische Universität München, priority 2019, dated 2021).
# Molecular target: His/HA-SUMO-2 (stably expressed in HepaRG cells) (UniProt P61956)
# Assay: Ni-NTA purification of covalent His/HA-SUMO-2 conjugates from infected HepaRG cells, anti-E2A immunoblot, densitometry normalised to E2A levels
substance,measurement,value
"E2A K94/132/202R, untagged (pCMX3b-E2AK94/132/202R / pE2A-SCM, or expressed from HAdV E2A SCM mutant virus) (from UniProt P03265 1-529)",reduction of E2A SUMOylation against HAdV wt infection,70%
